From patent US10934559B2, “Hypersensitive ABA receptors” (The Regents of the University of California, priority 2014, dated 2021)

Test system: HAB1
Test: PYR1 mutant-HAB1 yeast two-hybrid assay under different ABA concentrations (X-gal staining)
Format: cell-based
Settings: lowest (+)-ABA concentration giving detectable X-gal staining; S. cerevisiae Y190 with pACT-HAB1; 30° C., 48 hours
Text: The affinity of a receptor for a target ligand is typically determined by non-covalent interactions between ligand-binding residues and the ligand. Mutations in such residues can have negative, positive or neutral effects on the strength of the receptor—ligand interaction. The affinity of a receptor-ligand interaction is intrinsically correlated with the concentration of ligand required to elicit biological effects, with high affinity ligands requiring lower concentrations relative to low affinity ligands. A mutant receptor with increased affinity for a ligand can in some cases elicit greater biological effect relative to a wild type receptor, when both are activated under identical conditions by the same concentration of activating ligand. Thus, mutations that make a receptor hypersensitive to a ligand can be useful for engineering organisms that elicit stronger responses to the ligand relative to wild type. […] Based on these considerations, we set out to systematically establish specific ABA receptor mutations that increase ABA responsiveness. This was done by testing a collection of PYR1 variants with all possible single amino acid substitution mutations in ligand binding residues. Thus we conducted site-saturated mutagenesis of ABA-contacting residues, which we define as those that are within 5A or ABA or ABA-contacting water residues in available X-ray coordinates. This collection of mutants was constructed previously, as described in PCT Application No. PCT/US2012/043121 and Mosquna et al., Proc Natl Acad Sci USA 108: 20838-20843 (2011). This collection of mutants was made by mutagenizing a previously described pBD GAL-PYR1 template (Park, S.-Y., et al. Science 324, 1068-1071 ([…])). In response to ABA, this particular plasmid encodes a fusion protein that binds to a co-expressed GAL4 activation domain-HAB1 fusion protein, encoded by the plasmid pACT-HAB1. This binding reconstitutes a functional GAL4 transcriptional activator and subsequent transcription of a β-galactosidase reporter gene, which in turn enables colorimetric based detection of agonist promoted receptor-PP2C interaction when lysed cells are exposed to the substrate X-gal. The mutant clones were individually transformed into S. cerevisiae strain Y190 containing pACT-HAB1. Yeast transformants were selected for the presence of plasmids on synthetic dextrose (SD) agar plates lacking Leu and Trp (SD-LT) and examined for PP2C interactions by using X-gal staining to monitor β-gal reporter gene expression levels. Individual clones were arrayed into 96 well plates and then spotted onto SD-LT lawn (i.e. one-well) plates containing 0, 0.5 or 5.0 μM (+)-ABA. Each assay plate contained 95 mutant clones and one wild type PYR1 positive control clone. The spotted cells were cultured at 30° C. for 48 hours after which they were lysed by chloroform and stained with an X-gal solution, as previously described (Park, S.-Y., et al. (2009) Science 324, 1068-1071). […] After this initial screening exercise, all positives clones were retested on plates containing […] and stained for galactosidase activity as described above. Mutant clones showing detectable staining on 0.5 μM (+)-ABA or lower were scored as hypersensitive mutants. FIG. 1 depicts results of PYR1 mutant-HAB1 interactions as assayed in a yeast two-hybrid assay under different ABA concentrations, with darker spots indicating increased interaction.

B1: I110S: PYR1 mutant I110S, SEQ ID NO:129 (protein)
chain: MPSELTPEERSELKNSIAEFHTYQLDPGSCSSLHAQRIHAPPELVWSIVRRFDKPQTYKHFIKSCSVEQNFEMRVGCTRDVIVISGLPANTSTERLDILDDERRVTGFSSIGGEHRLTNYKSVTTVHRFEKENRIWTVVLESYVVDMPEGNSEDDTRMFADTVVKLNLQKLATVAEAMARNSGDGSGSQVT
modifications: synthetic Arabidopsis PYR1 mutant I110S
- Minimal conc. For ABA response: 0.5 µM

B2: E141Y: PYR1 mutant E141Y, SEQ ID NO:138 (protein)
chain: MPSELTPEERSELKNSIAEFHTYQLDPGSCSSLHAQRIHAPPELVWSIVRRFDKPQTYKHFIKSCSVEQNFEMRVGCTRDVIVISGLPANTSTERLDILDDERRVTGFSIIGGEHRLTNYKSVTTVHRFEKENRIWTVVLYSYVVDMPEGNSEDDTRMFADTVVKLNLQKLATVAEAMARNSGDGSGSQVT
modifications: synthetic Arabidopsis PYR1 mutant E141Y
- Minimal conc. For ABA response: 0.25 µM

B3: E141V: PYR1 mutant E141V, SEQ ID NO:136 (protein)
chain: MPSELTPEERSELKNSIAEFHTYQLDPGSCSSLHAQRIHAPPELVWSIVRRFDKPQTYKHFIKSCSVEQNFEMRVGCTRDVIVISGLPANTSTERLDILDDERRVTGFSIIGGEHRLTNYKSVTTVHRFEKENRIWTVVLVSYVVDMPEGNSEDDTRMFADTVVKLNLQKLATVAEAMARNSGDGSGSQVT
modifications: synthetic Arabidopsis PYR1 mutant E141V
- Minimal conc. For ABA response: 0.5 µM

B4: F61L: PYR1 mutant F61L, SEQ ID NO:124 (protein)
chain: MPSELTPEERSELKNSIAEFHTYQLDPGSCSSLHAQRIHAPPELVWSIVRRFDKPQTYKHLIKSCSVEQNFEMRVGCTRDVIVISGLPANTSTERLDILDDERRVTGFSIIGGEHRLTNYKSVTTVHRFEKENRIWTVVLESYVVDMPEGNSEDDTRMFADTVVKLNLQKLATVAEAMARNSGDGSGSQVT
modifications: synthetic Arabidopsis PYR1 mutant F61L
- Minimal conc. For ABA response: 0.25 µM

B5: E141L: PYR1 mutant E141L, SEQ ID NO:132 (protein)
chain: MPSELTPEERSELKNSIAEFHTYQLDPGSCSSLHAQRIHAPPELVWSIVRRFDKPQTYKHFIKSCSVEQNFEMRVGCTRDVIVISGLPANTSTERLDILDDERRVTGFSIIGGEHRLTNYKSVTTVHRFEKENRIWTVVLLSYVVDMPEGNSEDDTRMFADTVVKLNLQKLATVAEAMARNSGDGSGSQVT
modifications: synthetic Arabidopsis PYR1 mutant E141L
- Minimal conc. For ABA response: 0.25 µM

B6: E141N: PYR1 mutant E141N, SEQ ID NO:134 (protein)
chain: MPSELTPEERSELKNSIAEFHTYQLDPGSCSSLHAQRIHAPPELVWSIVRRFDKPQTYKHFIKSCSVEQNFEMRVGCTRDVIVISGLPANTSTERLDILDDERRVTGFSIIGGEHRLTNYKSVTTVHRFEKENRIWTVVLNSYVVDMPEGNSEDDTRMFADTVVKLNLQKLATVAEAMARNSGDGSGSQVT
modifications: synthetic Arabidopsis PYR1 mutant E141N
- Minimal conc. For ABA response: 0.5 µM

B7: E141M: PYR1 mutant E141M, SEQ ID NO:133 (protein)
chain: MPSELTPEERSELKNSIAEFHTYQLDPGSCSSLHAQRIHAPPELVWSIVRRFDKPQTYKHFIKSCSVEQNFEMRVGCTRDVIVISGLPANTSTERLDILDDERRVTGFSIIGGEHRLTNYKSVTTVHRFEKENRIWTVVLMSYVVDMPEGNSEDDTRMFADTVVKLNLQKLATVAEAMARNSGDGSGSQVT
modifications: synthetic Arabidopsis PYR1 mutant E141M
- Minimal conc. For ABA response: 0.25 µM

B8: A160I: PYR1 mutant A160I, SEQ ID NO:140 (protein)
chain: MPSELTPEERSELKNSIAEFHTYQLDPGSCSSLHAQRIHAPPELVWSIVRRFDKPQTYKHFIKSCSVEQNFEMRVGCTRDVIVISGLPANTSTERLDILDDERRVTGFSIIGGEHRLTNYKSVTTVHRFEKENRIWTVVLESYVVDMPEGNSEDDTRMFIDTVVKLNLQKLATVAEAMARNSGDGSGSQVT
modifications: synthetic Arabidopsis PYR1 mutant A160I
- Minimal conc. For ABA response: 0.25 µM

B9: A160C: PYR1 mutant A160C, SEQ ID NO:139 (protein)
chain: MPSELTPEERSELKNSIAEFHTYQLDPGSCSSLHAQRIHAPPELVWSIVRRFDKPQTYKHFIKSCSVEQNFEMRVGCTRDVIVISGLPANTSTERLDILDDERRVTGFSIIGGEHRLTNYKSVTTVHRFEKENRIWTVVLESYVVDMPEGNSEDDTRMFCDTVVKLNLQKLATVAEAMARNSGDGSGSQVT
modifications: synthetic Arabidopsis PYR1 mutant A160C
- Minimal conc. For ABA response: 0.25 µM

B10: F61M: PYR1 mutant F61M, SEQ ID NO:125 (protein)
chain: MPSELTPEERSELKNSIAEFHTYQLDPGSCSSLHAQRIHAPPELVWSIVRRFDKPQTYKHMIKSCSVEQNFEMRVGCTRDVIVISGLPANTSTERLDILDDERRVTGFSIIGGEHRLTNYKSVTTVHRFEKENRIWTVVLESYVVDMPEGNSEDDTRMFADTVVKLNLQKLATVAEAMARNSGDGSGSQVT
modifications: synthetic Arabidopsis PYR1 mutant F61M
- Minimal conc. For ABA response: 0.25 µM

B11: E141W: PYR1 mutant E141W, SEQ ID NO:137 (protein)
chain: MPSELTPEERSELKNSIAEFHTYQLDPGSCSSLHAQRIHAPPELVWSIVRRFDKPQTYKHFIKSCSVEQNFEMRVGCTRDVIVISGLPANTSTERLDILDDERRVTGFSIIGGEHRLTNYKSVTTVHRFEKENRIWTVVLWSYVVDMPEGNSEDDTRMFADTVVKLNLQKLATVAEAMARNSGDGSGSQVT
modifications: synthetic Arabidopsis PYR1 mutant E141W
- Minimal conc. For ABA response: 0.5 µM

B12: E141C: PYR1 mutant E141C, SEQ ID NO:130 (protein)
chain: MPSELTPEERSELKNSIAEFHTYQLDPGSCSSLHAQRIHAPPELVWSIVRRFDKPQTYKHFIKSCSVEQNFEMRVGCTRDVIVISGLPANTSTERLDILDDERRVTGFSIIGGEHRLTNYKSVTTVHRFEKENRIWTVVLCSYVVDMPEGNSEDDTRMFADTVVKLNLQKLATVAEAMARNSGDGSGSQVT
modifications: synthetic Arabidopsis PYR1 mutant E141C
- Minimal conc. For ABA response: 0.5 µM

B13: V81I: PYR1 mutant V81I, SEQ ID NO:126 (protein)
chain: MPSELTPEERSELKNSIAEFHTYQLDPGSCSSLHAQRIHAPPELVWSIVRRFDKPQTYKHFIKSCSVEQNFEMRVGCTRDIIVISGLPANTSTERLDILDDERRVTGFSIIGGEHRLTNYKSVTTVHRFEKENRIWTVVLESYVVDMPEGNSEDDTRMFADTVVKLNLQKLATVAEAMARNSGDGSGSQVT
modifications: synthetic Arabidopsis PYR1 mutant V81I
- Minimal conc. For ABA response: 0.25 µM

B14: E141T: PYR1 mutant E141T, SEQ ID NO:135 (protein)
chain: MPSELTPEERSELKNSIAEFHTYQLDPGSCSSLHAQRIHAPPELVWSIVRRFDKPQTYKHFIKSCSVEQNFEMRVGCTRDVIVISGLPANTSTERLDILDDERRVTGFSIIGGEHRLTNYKSVTTVHRFEKENRIWTVVLTSYVVDMPEGNSEDDTRMFADTVVKLNLQKLATVAEAMARNSGDGSGSQVT
modifications: synthetic Arabidopsis PYR1 mutant E141T
- Minimal conc. For ABA response: 0.5 µM

B15: E141I: PYR1 mutant E141I, SEQ ID NO:131 (protein)
chain: MPSELTPEERSELKNSIAEFHTYQLDPGSCSSLHAQRIHAPPELVWSIVRRFDKPQTYKHFIKSCSVEQNFEMRVGCTRDVIVISGLPANTSTERLDILDDERRVTGFSIIGGEHRLTNYKSVTTVHRFEKENRIWTVVLISYVVDMPEGNSEDDTRMFADTVVKLNLQKLATVAEAMARNSGDGSGSQVT
modifications: synthetic Arabidopsis PYR1 mutant E141I
- Minimal conc. For ABA response: 0.25 µM
